This passage reports Kd results from publication PMC8939775, “Structures of the Omicron Spike trimer with ACE2 and an anti-Omicron antibody” (Science (New York, N.y.), 2022).

In the experiment the target is T1, SARS-CoV-2 wildtype (WT) spike extracellular domain trimer (proline substitutions 2P or 6P, mutated furin … (SARS-CoV-2, UniProt P0DTC2)).
T1 construct: also called WT spike trimer
Particulars: both partners purified.

Broadly, the Kd is the concentration at which binding is half-saturated.

B1: JMB2002 IgG (antibody, V domains shown)
VH: QVQLVQSGAEVKKPGSSVKVSCKASGGTFSSYAISWVRQAPGQGLEWMGRIIPIFGTANYAQKFQGRVTITADESTSTAYMELSSLRSEDTAVYYCASLASYSSGWEDVFDIWGQGTMVTVSS
VL: DIQMTQSPSSLSASVGDRVTITCRASQGISSWLAWYQQKPGKAPKLLIYDASNLETGVPSRFSGSGSGTDFTFTISSLQPEDIATYYCQQYDNLPLTFGGGTKVEIK
notes: copies: 2 + 2
The molecule B1 showed a Kd of 0.5 ± 0.3 nM.

B2: JMB2002 Fab (Fab, V domains shown)
VH: B1 VH
VL: B1 VL
notes: also called Fab from JMB2002
On to B2, for which the affinity, expressed as Kd, was 12.2 ± 11.6 nM.
